This note sets out measurements from the Immune Epitope Database (IEDB).

In one assay the target is HLA-A*02:12. Nature of the assay: IEDB peptide-MHC binding, purified MHC/direct/fluorescence; filed as Kd, often an IC50 or EC50 that approximates it; ≥ and ≤ were set here for values at or beyond the usual limits of such assays.
The target of assay [1] is HLA-A*02:03. The assay is described as above.
Another assay deals with HLA-A*02:11. The assay is described as above.
Assay [2] addresses HLA-A*69:01. The assay is described as above.
The target in assay [3] is HLA-A*02:03. As to the kind of experiment: IEDB peptide-MHC binding, purified MHC/competitive/radioactivity; filed as Kd, often an IC50 or EC50 that approximates it; ≥ and ≤ were set here for values at or beyond the usual limits of such assays. The conditions noted are these: source organism: Dengue virus 1 Brazil/97-11/1997.
The target in a further assay is HLA-A*02:17. Described as above. To be noted: source organism: Dengue virus 1 Singapore/S275/1990.
The target of the next assay is HLA-A*02:19. Nature of the assay: IEDB peptide-MHC binding, purified MHC/direct/fluorescence; filed as Kd, often an IC50 or EC50 that approximates it; ≥ and ≤ were set here for values at or beyond the usual limits of such assays.
For the next assay, the target named is HLA-A*11:01. Described as above. To be noted: source organism: Mammarenavirus lassaense.
In assay [4] the target is HLA-A*03:01. The description is as above. To be noted: source organism: Mammarenavirus lassaense.
The target in another assay is HLA-B*45:06. As to the kind of experiment: IEDB peptide-MHC binding, purified MHC/competitive/fluorescence; filed as Kd, often an IC50 or EC50 that approximates it; ≥ and ≤ were set here for values at or beyond the usual limits of such assays.
The target in another assay is HLA-B*15:42. The description is as above.
For a further assay, the target named is HLA-B*83:01. Described as above.
Another assay concerns the target HLA-A*31:01. The description is as above.
A further assay deals with HLA-B*58:01. As to the kind of experiment: IEDB peptide-MHC binding, purified MHC/competitive/radioactivity; filed as Kd, often an IC50 or EC50 that approximates it; ≥ and ≤ were set here for values at or beyond the usual limits of such assays. To be noted: source organism: Dengue virus 4 Philippines/H241/1956.
The target of assay [5] is HLA-A*24:02. Described as above. To be noted: source organism: Dengue virus 4 Philippines/H241/1956.
The target in assay [6] is HLA-B*57:01. The assay is described as above. The conditions noted are these: source organism: Dengue virus 4 Philippines/H241/1956.
For another assay, the target named is HLA-B*53:01. Described as above. To be noted: source organism: Dengue virus 4 Philippines/H241/1956.
Another assay has as its target HLA-B*08:02. Nature of the assay: IEDB peptide-MHC binding, purified MHC/direct/fluorescence; filed as Kd, often an IC50 or EC50 that approximates it; ≥ and ≤ were set here for values at or beyond the usual limits of such assays.
Assay [7] deals with HLA-B*15:01. As to the kind of experiment: IEDB peptide-MHC binding, purified MHC/competitive/fluorescence; ≥ and ≤ were set here for values at or beyond the usual limits of such assays.
A further assay has as its target HLA-B*07:02. The assay is described as above.
For assay [8], the target named is HLA-B*08:01. The assay is described as above.
The target in assay [9] is HLA-A*24:02. The description is as above.
The next assay has as its target HLA-A*02:01. Described as above.
For assay [10], the target named is HLA-B*08:01. As to the kind of experiment: IEDB peptide-MHC binding, purified MHC/direct/fluorescence; filed as Kd, often an IC50 or EC50 that approximates it; ≥ and ≤ were set here for values at or beyond the usual limits of such assays. To be noted: source organism: Mycobacterium tuberculosis str. Haarlem.
Assay [11] addresses HLA-B*15:01. The description is as above. To be noted: source organism: Campylobacter jejuni.
A further assay addresses HLA-A*24:03. Described as above. The conditions noted are these: source organism: Orthohantavirus tulaense.
In the next assay the target is HLA-A*68:02. The assay is described as above. To be noted: source organism: Orthohantavirus tulaense.
The target of the next assay is HLA-A*02:16. The description is as above. To be noted: source organism: Orthohantavirus tulaense.
Assay [12] concerns the target HLA-B*15:01. Nature of the assay: IEDB peptide-MHC binding, purified MHC/competitive/fluorescence; filed as Kd, often an IC50 or EC50 that approximates it; ≥ and ≤ were set here for values at or beyond the usual limits of such assays. To be noted: source organism: Orthohantavirus tulaense.
For another assay, the target named is HLA-B*51:01. Described as above. To be noted: source organism: Orthohantavirus tulaense.
Assay [13] has as its target HLA-B*18:01. The description is as above. To be noted: source organism: Orthohantavirus tulaense.
The target of a further assay is HLA-B*27:03. The description is as above. The conditions noted are these: source organism: Orthohantavirus tulaense.
The next assay deals with HLA-A*26:01. Described as above. To be noted: source organism: Orthohantavirus tulaense.
Assay [14] deals with HLA-B*57:01. The assay is described as above. To be noted: source organism: Orthohantavirus tulaense.
The target of a further assay is HLA-B*46:01. Described as above. To be noted: source organism: Orthohantavirus tulaense.
The target in assay [15] is HLA-A*03:01. The assay is described as above. The conditions noted are these: source organism: Orthohantavirus tulaense.
The target in assay [16] is HLA-A*69:01. The description is as above. The conditions noted are these: source organism: Orthohantavirus tulaense.
In the next assay the target is HLA-B*39:01. Described as above. The conditions noted are these: source organism: Orthohantavirus tulaense.
Assay [17] addresses HLA-B*18:01. As to the kind of experiment: IEDB peptide-MHC binding, purified MHC/direct/fluorescence; filed as Kd, often an IC50 or EC50 that approximates it; ≥ and ≤ were set here for values at or beyond the usual limits of such assays. To be noted: source organism: Yellow fever virus 1899/81.
Setting [18] is: source organism: Mycobacterium tuberculosis str. Haarlem.
[19] abbreviates: source organism: dengue virus type 3.
The mark [20] stands for this setting: source organism: Mopeia Lassa virus reassortant 29.
Setting [21] is: source organism: Vaccinia virus Copenhagen.
Where [22] appears, read: source organism: Zaire ebolavirus.
Where [23] appears, read: source organism: Orthohantavirus tulaense.
The mark [24] stands for this setting: source organism: Yellow fever virus 1899/81.
The mark [25] stands for this setting: source organism: Vaccinia virus.

Broadly, the Kd is the equilibrium constant for the complex coming apart. As for ALFPIIWAL, the Kd is 0.004 µM with HLA-A*02:12 (setting [18]), 0.003 µM in the assay with HLA-A*02:03 [1] (setting [18]), at most 0.001 µM with HLA-A*02:11 (setting [18]) and 0.536 µM in the assay with HLA-A*69:01 [2] (source organism: Mycobacterium tuberculosis).
For TLYAVATTV, the Kd was 0.0128 µM with HLA-A*02:03 [3]; 1.62 µM in the assay with HLA-A*02:17; 0.005 µM in the assay with HLA-A*02:12 (setting [19]); at most 0.001 µM with HLA-A*02:11 (setting [19]); 0.01 µM with HLA-A*02:19 (setting [19]).
As to RLKFSLSYK, the Kd with HLA-A*11:01 is 0.0597 µM; in the assay with HLA-A*03:01 [4], 0.0484 µM; with HLA-B*45:06 (setting [20]), at least 5 µM; in the assay with HLA-B*15:42 (setting [20]), at least 5 µM; with HLA-B*83:01 (setting [20]) it was at least 5 µM; with HLA-A*31:01 (setting [20]), 0.00717 µM.
VTMTLWYMW: the Kd with HLA-B*58:01 is 0.00159 µM; with HLA-A*24:02 [5], 0.0317 µM; in the assay with HLA-B*57:01 [6], 0.00752 µM; with HLA-B*53:01 it was 2.54 µM.
For ILKERKQAL, the Kd in the assay with HLA-B*08:02 (source organism: Listeria monocytogenes serotype 4b str. H7858) came to 1.62 µM.
Broadly, the IC50 is the concentration that gives 50% inhibition. In the case of YLFGGFSTL, the results for the IC50 with HLA-B*15:01 [7] (source organism: Variola virus), in the assay with HLA-B*07:02 (source organism: Variola virus) and in the assay with HLA-B*08:01 [8] (source organism: Variola virus) were 3.33 µM, 7.61 µM and at least 273 µM, respectively.
As to ILRSIEGEL, the IC50 in the assay with HLA-B*15:01 [7] (setting [21]) is 39.8 µM; in the assay with HLA-B*07:02 (setting [21]), 33.9 µM; with HLA-B*08:01 [8] (setting [21]) it was at least 524 µM.
Turning to WISHRPVVL, the IC50 with HLA-A*24:02 [9] (source organism: Variola virus) was 21.5 µM; with HLA-B*07:02 (source organism: Variola virus), 7.13 µM; with HLA-B*08:01 [8] (source organism: Variola virus), 25.7 µM; with HLA-A*02:01 (source organism: Variola virus) it was 1.11 µM.
With TLRRRFAVA, the Kd with HLA-B*08:02 (setting [18]) was at least 20 µM; with HLA-B*08:01 [10], 0.012 µM.
For SLNLAKEAV, the Kd with HLA-B*15:01 [11] was at least 34 µM; with HLA-A*02:11 (source organism: Campylobacter jejuni subsp. jejuni HB93-13), 0.003 µM; in the assay with HLA-A*69:01 [2] (source organism: Campylobacter jejuni), 4.34 µM.
INKLNGAMV gave an IC50 with HLA-B*07:02 (setting [21]) of at least 74.2 µM.
Consider TNQLRSVGL, for which the half-maximal inhibitory concentration (IC50) came out at 64.3 µM with HLA-B*07:02 (setting [22]) and 32.9 µM in the assay with HLA-B*08:01 [8] (setting [22]).
Take ILMARYMSK: the Kd with HLA-A*24:03, with HLA-A*02:12 (setting [23]), with HLA-A*02:03 [1] (setting [23]), in the assay with HLA-A*02:11 (setting [23]), in the assay with HLA-A*68:02 and with HLA-A*02:19 (setting [23]) was at least 20 µM throughout. Moreover, the Kd was at least 20 µM with HLA-A*02:16; at least 5 µM with HLA-B*45:06 (setting [23]); at least 20 µM with HLA-B*15:01 [12]; at least 5 µM with HLA-B*15:42 (setting [23]); at least 20 µM with HLA-B*51:01; at least 20 µM with HLA-B*18:01 [13]. Further, the Kd with HLA-B*27:03 is at least 20 µM; in the assay with HLA-A*26:01, at least 20 µM; in the assay with HLA-B*57:01 [14] it was at least 20 µM; with HLA-B*46:01 it was at least 20 µM; in the assay with HLA-A*03:01 [15] it was 0.0628 µM; with HLA-B*83:01 (setting [23]), at least 5 µM. Further, the Kd with HLA-A*69:01 [16] was at least 20 µM; with HLA-A*31:01 (setting [23]), 0.0152 µM; in the assay with HLA-B*39:01, at least 20 µM.
In the case of QLREAATEA, the IC50 in the assay with HLA-B*15:01 [7] (setting [22]) was 62.1 µM; with HLA-B*07:02 (setting [22]), 28.2 µM; with HLA-B*08:01 [8] (setting [22]), at least 192 µM; with HLA-A*02:01 (setting [22]) it was 20 µM.
For the sequence HEVNGTWMI, the Kd was 0.009 µM in the assay with HLA-B*18:01 [17], at least 5 µM with HLA-B*45:06 (setting [24]), at least 5 µM with HLA-B*15:42 (setting [24]) and at least 5 µM with HLA-B*83:01 (setting [24]).
For the sequence GMLRFANPL, the IC50 with HLA-B*15:01 [7] (setting [25]) worked out at 1.69 µM; with HLA-A*24:02 [9] (setting [25]) it was 8.07 µM; in the assay with HLA-B*07:02 (setting [25]), 5.38 µM; with HLA-B*08:01 [8] (setting [25]) it was 11.8 µM; with HLA-A*02:01 (setting [25]) it was 0.651 µM.
